Measurements as given in patent US20240270846A1 (published 2024).
Where a chain is given by its changes, count along the chain named. In names and notes the source's numbering stands.

B1: GLS3000 S26D one-arm antibody (H chain CE115HA000) (antibody, human IgG1, kappa, L234A L235A, N297A, name in Kabat numbering)
heavy: QVQLVESGGGVVQPGRSLRLSCAASGFTFSNAWMHWVRQAPGKGLEWVAQIKAKSNNYATYYAESVKGRFTISRDDSKNSLYLQMNSLKTEDTAVYYCRYVHYGAYYGVDAWGQGTTVTVSSASTKGPSVFPLAPSSKSTSGGTAALGCLVKDYFPEPVTVSWNSGALTSGVHTFPAVLQSSGLYSLSSVVTVPSSSLGTQTYICNVNHKPSNTKVDKKVEPKSCDKTHTCPPCPAPEAAGGPSVFLFPPKPKDTLMISRTPEVTCVVVDVSHEDPEVKFNWYVDGVEVHNAKTKPREEQYASTYRVVSVLTVLHQDWLNGKEYKCKVSNKALPAPIEKTISKAKGQPREPQVYTLPPSRCELTKNQVSLSCAVKGFYPSDIAVEWESNGQPENNYKTTPPVLDSDGSFFLVSKLTVDKSRWQQGNVFSCSVMHEALHNHYTQKSLSLSPDYKDDDDK
chain: EPKSSDKTHTCPPCPAPELLGGPSVFLFPPKPKDTLMISRTPEVTCVVVDVSHEDPEVKFNWYVDGVEVHNAKTKPREEQYNSTYRVVSVLTVLHQDWLNGKEYKCKVSNKALPAPIEKTISKAKGQPREPQVCTLPPSRDELTKNQVSLWCLVKGFYPSDIAVEWESNGQPENNYKTTPPVLDSDGSFFLYSKLTVDKSRWQQGNVFSCSVMHEALHNRYTQKSLSLSP
light: DIVMTQSPLSLPVTPGEPASISCRSDQSLVHSNRNTYLHWYQQKPGQAPRLLIYKVSNRFSGVPDRFSGSGSGTDFTLKISRVEAEDVGVYYCGQGTQVPYTFGQGTKLEIKRTVAAPSVFIFPPSDEQLKSGTASVVCLLNNFYPREAKVQWKVDNALQSGNSQESVTEQDSKDSTYSLSSTLTLSKADYEKHKVYACEVTHQGLSSPVTKSFNRGEC
notes: one-arm antibody
B2: GLS3000 S27eL one-arm antibody (H chain CE115HA000) (antibody, human IgG1, kappa, L234A L235A, N297A, name in Kabat numbering)
heavy: B1 heavy
chain: B1 chain
light: B1 light with D26S, S32L
notes: one-arm antibody
B3: GLS3000 S27aY one-arm antibody (H chain CE115HA000) (antibody, human IgG1, kappa, L234A L235A, N297A, name in Kabat numbering)
heavy: B1 heavy
chain: B1 chain
light: B1 light with D26S, S28Y
notes: one-arm antibody
B4: GLS3000 S27eN one-arm antibody (H chain CE115HA000) (antibody, human IgG1, kappa, L234A L235A, N297A, name in Kabat numbering)
heavy: B1 heavy
chain: B1 chain
light: B1 light with D26S, S32N
notes: one-arm antibody
B5: GLS3000 S27eG one-arm antibody (H chain CE115HA000) (antibody, human IgG1, kappa, L234A L235A, N297A, name in Kabat numbering)
heavy: B1 heavy
chain: B1 chain
light: B1 light with D26S, S32G
notes: one-arm antibody
B6: GLS3000 S52D one-arm antibody (H chain CE115HA000) (antibody, human IgG1, kappa, L234A L235A, N297A, name in Kabat numbering)
heavy: B1 heavy
chain: B1 chain
light: B1 light with D26S, S57D
notes: one-arm antibody
B7: GLS3000 S27eF one-arm antibody (H chain CE115HA000) (antibody, human IgG1, kappa, L234A L235A, N297A, name in Kabat numbering)
heavy: B1 heavy
chain: B1 chain
light: B1 light with D26S, S32F
notes: one-arm antibody
B8: GLS3000 S27eV one-arm antibody (H chain CE115HA000) (antibody, human IgG1, kappa, L234A L235A, N297A, name in Kabat numbering)
heavy: B1 heavy
chain: B1 chain
light: B1 light with D26S, S32V
notes: one-arm antibody
B9: GLS3000 S27eP one-arm antibody (H chain CE115HA000) (antibody, human IgG1, kappa, L234A L235A, N297A, name in Kabat numbering)
heavy: B1 heavy
chain: B1 chain
light: B1 light with D26S, S32P
notes: one-arm antibody
B10: GLS3000 S27aP one-arm antibody (H chain CE115HA000) (antibody, human IgG1, kappa, L234A L235A, N297A, name in Kabat numbering)
heavy: B1 heavy
chain: B1 chain
light: B1 light with D26S, S28P
notes: one-arm antibody
B11: GLS3000 S27aI one-arm antibody (H chain CE115HA000) (antibody, human IgG1, kappa, L234A L235A, N297A, name in Kabat numbering)
heavy: B1 heavy
chain: B1 chain
light: B1 light with D26S, S28I
notes: one-arm antibody
B12: GLS3000 S27eD one-arm antibody (H chain CE115HA000) (antibody, human IgG1, kappa, L234A L235A, N297A, name in Kabat numbering)
heavy: B1 heavy
chain: B1 chain
light: B1 light with D26S, S32D
notes: one-arm antibody
B13: GLS3000 S52A one-arm antibody (H chain CE115HA000) (antibody, human IgG1, kappa, L234A L235A, N297A, name in Kabat numbering)
heavy: B1 heavy
chain: B1 chain
light: B1 light with D26S, S57A
notes: one-arm antibody
B14: GLS3000 S27aN one-arm antibody (H chain CE115HA000) (antibody, human IgG1, kappa, L234A L235A, N297A, name in Kabat numbering)
heavy: B1 heavy
chain: B1 chain
light: B1 light with D26S, S28N
notes: one-arm antibody
B15: GLS3000 S27aD one-arm antibody (H chain CE115HA000) (antibody, human IgG1, kappa, L234A L235A, N297A, name in Kabat numbering)
heavy: B1 heavy
chain: B1 chain
light: B1 light with D26S, S28D
notes: one-arm antibody
B16: GLS3000 S27eK one-arm antibody (H chain CE115HA000) (antibody, human IgG1, kappa, L234A L235A, N297A, name in Kabat numbering)
heavy: B1 heavy
chain: B1 chain
light: B1 light with D26S, S32K
notes: one-arm antibody
B17: GLS3000 S27eE one-arm antibody (H chain CE115HA000) (antibody, human IgG1, kappa, L234A L235A, N297A, name in Kabat numbering)
heavy: B1 heavy
chain: B1 chain
light: B1 light with D26S, S32E
notes: one-arm antibody
B18: GLS3000 S27aE one-arm antibody (H chain CE115HA000) (antibody, human IgG1, kappa, L234A L235A, N297A, name in Kabat numbering)
heavy: B1 heavy
chain: B1 chain
light: B1 light with D26S, S28E
notes: one-arm antibody
B19: GLS3000 S26E one-arm antibody (H chain CE115HA000) (antibody, human IgG1, kappa, L234A L235A, N297A, name in Kabat numbering)
heavy: B1 heavy
chain: B1 chain
light: B1 light with D26E
notes: one-arm antibody
B20: GLS3000 S27eW one-arm antibody (H chain CE115HA000) (antibody, human IgG1, kappa, L234A L235A, N297A, name in Kabat numbering)
heavy: B1 heavy
chain: B1 chain
light: B1 light with D26S, S32W
notes: one-arm antibody
B21: GLS3000 S27eT one-arm antibody (H chain CE115HA000) (antibody, human IgG1, kappa, L234A L235A, N297A, name in Kabat numbering)
heavy: B1 heavy
chain: B1 chain
light: B1 light with D26S, S32T
notes: one-arm antibody
B22: GLS3000 S27aG one-arm antibody (H chain CE115HA000) (antibody, human IgG1, kappa, L234A L235A, N297A, name in Kabat numbering)
heavy: B1 heavy
chain: B1 chain
light: B1 light with D26S, S28G
notes: one-arm antibody
B23: GLS3000 S27eQ one-arm antibody (H chain CE115HA000) (antibody, human IgG1, kappa, L234A L235A, N297A, name in Kabat numbering)
heavy: B1 heavy
chain: B1 chain
light: B1 light with D26S, S32Q
notes: one-arm antibody
B24: GLS3000 S27eI one-arm antibody (H chain CE115HA000) (antibody, human IgG1, kappa, L234A L235A, N297A, name in Kabat numbering)
heavy: B1 heavy
chain: B1 chain
light: B1 light with D26S, S32I
notes: one-arm antibody
B25: GLS3000 S27eM one-arm antibody (H chain CE115HA000) (antibody, human IgG1, kappa, L234A L235A, N297A, name in Kabat numbering)
heavy: B1 heavy
chain: B1 chain
light: B1 light with D26S, S32M
notes: one-arm antibody
B26: GLS3000 S27eA one-arm antibody (H chain CE115HA000) (antibody, human IgG1, kappa, L234A L235A, N297A, name in Kabat numbering)
heavy: B1 heavy
chain: B1 chain
light: B1 light with D26S, S32A
notes: one-arm antibody
B27: GLS3000 S27eR one-arm antibody (H chain CE115HA000) (antibody, human IgG1, kappa, L234A L235A, N297A, name in Kabat numbering)
heavy: B1 heavy
chain: B1 chain
light: B1 light with D26S, S32R
notes: one-arm antibody
B28: GLS3000 S27eY one-arm antibody (H chain CE115HA000) (antibody, human IgG1, kappa, L234A L235A, N297A, name in Kabat numbering)
heavy: B1 heavy
chain: B1 chain
light: B1 light with D26S, S32Y
notes: one-arm antibody
B29: GLS3000 S56A one-arm antibody (H chain CE115HA000) (antibody, human IgG1, kappa, L234A L235A, N297A, name in Kabat numbering)
heavy: B1 heavy
chain: B1 chain
light: B1 light with D26S, S61A
notes: one-arm antibody
B30: GLS3000 S26P one-arm antibody (H chain CE115HA000) (antibody, human IgG1, kappa, L234A L235A, N297A, name in Kabat numbering)
heavy: B1 heavy
chain: B1 chain
light: B1 light with D26P
notes: one-arm antibody
B31: GLS3000 S27eH one-arm antibody (H chain CE115HA000) (antibody, human IgG1, kappa, L234A L235A, N297A, name in Kabat numbering)
heavy: B1 heavy
chain: B1 chain
light: B1 light with D26S, S32H
notes: one-arm antibody

biological target: T1, CD3 epsilon homodimer protein (UniProt P07766 23-126); experiment: SPR, CD3e homodimer on chip;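 also: surface plasmon resonance at 25 degrees C, antibodies flowed as analyte over CD3 epsilon homodimer amine-coupled to a CM4 chip, running buffer HBS-EP+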
T1 construct: also called CD3 (CD3 epsilon)
T1 sequence (P07766 23-126): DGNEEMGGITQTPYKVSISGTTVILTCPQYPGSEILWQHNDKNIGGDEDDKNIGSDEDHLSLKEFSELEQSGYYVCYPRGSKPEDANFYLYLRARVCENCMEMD
Method: An appropriate amount of CD3 epsilon homodimer protein was immobilized onto Sensor chip CM4 (GE Healthcare Japan Corp.) by the amine coupling method. Then, the antibody having an appropriate concentration was injected thereto as an analyte and allowed to interact with the CD3 epsilon homodimer protein on the sensor chip. Then, the sensor chip was regenerated by the injection of 10 mmol/L glycine-HCl (pH 1.5). The assay was conducted at 25 degrees C., and HBS-EP+(GE Healthcare Japan Corp.) was used as a running buffer. […] Each parameter was calculated using Biacore T200 Evaluation Software (GE Healthcare Japan Corp.).
Specifically, when the amount of the GLS3000-containing antibody bound was defined as X and the amount of the L chain one-amino acid altered form bound was defined as Y, a value of Z (ratio of amounts bound)=Y/X was used.

Row | Binder | ratio of amounts bound (altered form / unaltered GLS3000 antibody)
1 | B1 | 0.86
2 | B2 | 1.17
3 | B3 | 1.1
4 | B4 | 1.16
5 | B5 | 1.04
6 | B6 | 0.63
7 | B7 | 1.32
8 | B8 | 1.08
9 | B9 | 1.26
10 | B10 | 0.99
11 | B11 | 1
12 | B12 | 0.69
13 | B13 | 0.93
14 | B14 | 1.1
15 | B15 | 0.79
16 | B16 | 1.59

Row | Binder | ratio of amounts bound (altered form / unaltered GLS3000 antibody)
17 | B17 | 0.76
18 | B18 | 0.81
19 | B19 | 0.74
20 | B20 | 1.55
21 | B21 | 0.97
22 | B22 | 1.03
23 | B23 | 1.1
24 | B24 | 1.07
25 | B25 | 1.23
26 | B26 | 1.03
27 | B27 | 1.58
28 | B28 | 1.2
29 | B29 | 1.16
30 | B30 | 0.78
31 | B31 | 1.23
